The target of this assay is T1, human GIP receptor (human, UniProt P48546 22-466).
T1 sequence (looked up): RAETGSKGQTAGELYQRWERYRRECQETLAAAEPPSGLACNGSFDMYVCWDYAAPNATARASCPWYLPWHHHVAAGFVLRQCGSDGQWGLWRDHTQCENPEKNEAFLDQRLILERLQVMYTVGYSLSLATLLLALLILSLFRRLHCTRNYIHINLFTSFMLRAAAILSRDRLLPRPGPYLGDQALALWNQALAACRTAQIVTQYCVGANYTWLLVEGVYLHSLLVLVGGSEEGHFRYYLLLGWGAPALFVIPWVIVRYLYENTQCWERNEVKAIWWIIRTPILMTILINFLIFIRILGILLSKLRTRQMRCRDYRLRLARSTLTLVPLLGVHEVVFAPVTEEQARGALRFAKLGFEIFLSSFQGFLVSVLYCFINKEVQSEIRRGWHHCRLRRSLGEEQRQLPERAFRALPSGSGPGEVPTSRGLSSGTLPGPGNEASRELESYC
In words: cell-based or functional assay.

*1 amine or outer side, *2 acyl side, *3 side chain or, on linkers, in order; H or OH if unused. Where no end group is shown, it is not given here. Side-chain parts run from the residue outwards. [ ]: non-standard residue; d: D form. The star is where a group is joined. C18 diacid = O=C(O)CCCCCCCCCCCCCCCCC(=O)*; C16 diacid = O=C(O)CCCCCCCCCCCCCCC(=O)*; γGlu = O=C(O)[C@H](CCC(=O)[*:2])N[*:1]; Glutaryl = O=C(CCCC(=O)[*:2])[*:1]; Nle = CCCC[C@H](N)C(=O)O; AEEA = NCCOCCOCC(=O)O; Aib = CC(C)(N)C(=O)O

B1: AT674 (peptide)
peptide: EGTFISEYSI[Aib][Nle]EKIK(C16 diacid)QQEFVEWLLAQKPSSGAPPPS-OH
modifications: N-terminus assumed
SMILES: CCCC[C@H](NC(=O)C(C)(C)NC(=O)[C@@H](NC(=O)[C@H](CO)NC(=O)[C@H](Cc1ccc(O)cc1)NC(=O)[C@H](CCC(=O)O)NC(=O)[C@H](CO)NC(=O)[C@@H](NC(=O)[C@H](Cc1ccccc1)NC(=O)[C@@H](NC(=O)CNC(=O)[C@@H](N)CCC(=O)O)[C@@H](C)O)[C@@H](C)CC)[C@@H](C)CC)C(=O)N[C@@H](CCC(=O)O)C(=O)N[C@@H](CCCCN)C(=O)N[C@H](C(=O)N[C@@H](CCCCNC(=O)CCCCCCCCCCCCCCC(=O)O)C(=O)N[C@@H](CCC(N)=O)C(=O)N[C@@H](CCC(N)=O)C(=O)N[C@@H](CCC(=O)O)C(=O)N[C@@H](Cc1ccccc1)C(=O)N[C@H](C(=O)N[C@@H](CCC(=O)O)C(=O)N[C@@H](Cc1c[nH]c2ccccc12)C(=O)N[C@@H](CC(C)C)C(=O)N[C@@H](CC(C)C)C(=O)N[C@@H](C)C(=O)N[C@@H](CCC(N)=O)C(=O)N[C@@H](CCCCN)C(=O)N1CCC[C@H]1C(=O)N[C@@H](CO)C(=O)N[C@@H](CO)C(=O)NCC(=O)N[C@@H](C)C(=O)N1CCC[C@H]1C(=O)N1CCC[C@H]1C(=O)N1CCC[C@H]1C(=O)N[C@@H](CO)C(=O)O)C(C)C)[C@@H](C)CC
Turning to B1, the “cAMP agonism % Emax” value stood at 0%, the “cAMP antagonism” value worked out at 0.447 nM, the “cAMP antagonism % inhib” value worked out at 93% and the “cAMP antagonism pIC50” value was 9.4.

B2: AT677 (peptide)
peptide: Glutaryl-GTFISDYSIAMDKIK(C16 diacid)QQDFVNWLLAQKPSSGAPPPS-OH
SMILES: CC[C@H](C)[C@H](NC(=O)[C@H](CO)NC(=O)[C@H](Cc1ccc(O)cc1)NC(=O)[C@H](CC(=O)O)NC(=O)[C@H](CO)NC(=O)[C@@H](NC(=O)[C@H](Cc1ccccc1)NC(=O)[C@@H](NC(=O)CNC(=O)CCCC(=O)O)[C@@H](C)O)[C@@H](C)CC)C(=O)N[C@@H](C)C(=O)N[C@@H](CCSC)C(=O)N[C@@H](CC(=O)O)C(=O)N[C@@H](CCCCN)C(=O)N[C@H](C(=O)N[C@@H](CCCCNC(=O)CCCCCCCCCCCCCCC(=O)O)C(=O)N[C@@H](CCC(N)=O)C(=O)N[C@@H](CCC(N)=O)C(=O)N[C@@H](CC(=O)O)C(=O)N[C@@H](Cc1ccccc1)C(=O)N[C@H](C(=O)N[C@@H](CC(N)=O)C(=O)N[C@@H](Cc1c[nH]c2ccccc12)C(=O)N[C@@H](CC(C)C)C(=O)N[C@@H](CC(C)C)C(=O)N[C@@H](C)C(=O)N[C@@H](CCC(N)=O)C(=O)N[C@@H](CCCCN)C(=O)N1CCC[C@H]1C(=O)N[C@@H](CO)C(=O)N[C@@H](CO)C(=O)NCC(=O)N[C@@H](C)C(=O)N1CCC[C@H]1C(=O)N1CCC[C@H]1C(=O)N1CCC[C@H]1C(=O)N[C@@H](CO)C(=O)O)C(C)C)[C@@H](C)CC
Take B2: the “cAMP agonism % Emax” value was found to be 0%, the “cAMP antagonism” value was determined as 0.447 nM, the “cAMP antagonism % inhib” value came out at 93% and the “cAMP antagonism pIC50” value was 9.4.

B3: AT680 (peptide)
peptide: EGTFISDYSIAMDKIK([AEEA-AEEA-γGlu-C18 diacid])QQDFVNWLLAQKPSSGAPPPS-OH
modifications: N-terminus assumed
SMILES: CC[C@H](C)[C@H](NC(=O)[C@H](CO)NC(=O)[C@H](Cc1ccc(O)cc1)NC(=O)[C@H](CC(=O)O)NC(=O)[C@H](CO)NC(=O)[C@@H](NC(=O)[C@H](Cc1ccccc1)NC(=O)[C@@H](NC(=O)CNC(=O)[C@@H](N)CCC(=O)O)[C@@H](C)O)[C@@H](C)CC)C(=O)N[C@@H](C)C(=O)N[C@@H](CCSC)C(=O)N[C@@H](CC(=O)O)C(=O)N[C@@H](CCCCN)C(=O)N[C@H](C(=O)N[C@@H](CCCCNC(=O)COCCOCCNC(=O)COCCOCCNC(=O)CC[C@H](NC(=O)CCCCCCCCCCCCCCCCC(=O)O)C(=O)O)C(=O)N[C@@H](CCC(N)=O)C(=O)N[C@@H](CCC(N)=O)C(=O)N[C@@H](CC(=O)O)C(=O)N[C@@H](Cc1ccccc1)C(=O)N[C@H](C(=O)N[C@@H](CC(N)=O)C(=O)N[C@@H](Cc1c[nH]c2ccccc12)C(=O)N[C@@H](CC(C)C)C(=O)N[C@@H](CC(C)C)C(=O)N[C@@H](C)C(=O)N[C@@H](CCC(N)=O)C(=O)N[C@@H](CCCCN)C(=O)N1CCC[C@H]1C(=O)N[C@@H](CO)C(=O)N[C@@H](CO)C(=O)NCC(=O)N[C@@H](C)C(=O)N1CCC[C@H]1C(=O)N1CCC[C@H]1C(=O)N1CCC[C@H]1C(=O)N[C@@H](CO)C(=O)O)C(C)C)[C@@H](C)CC
Regarding B3, the “cAMP agonism % Emax” value was found to be 0%, the “cAMP antagonism” value was 4.3 nM, the “cAMP antagonism % inhib” value came to 93% and the “cAMP antagonism pIC50” value is 8.4.

On to [βGlu]GTFISDYSIAMDKIK(C16 diacid)QQDFVNWLLAQKPSSGAPPPS-OH [AT676], for which the “cAMP agonism % Emax” value came out at 0%, the “cAMP antagonism” value amounted to 2.33 nM, the “cAMP antagonism % inhib” value stood at 91% and the “cAMP antagonism pIC50” value is 8.6.

B4: AT675 (peptide)
peptide: [γGlu]GTFISDYSIAMDKIK(C16 diacid)QQDFVNWLLAQKPSSGAPPPS-OH
modifications: N-terminus assumed
SMILES: CC[C@H](C)[C@H](NC(=O)[C@H](CO)NC(=O)[C@H](Cc1ccc(O)cc1)NC(=O)[C@H](CC(=O)O)NC(=O)[C@H](CO)NC(=O)[C@@H](NC(=O)[C@H](Cc1ccccc1)NC(=O)[C@@H](NC(=O)CNC(=O)CC[C@H](N)C(=O)O)[C@@H](C)O)[C@@H](C)CC)C(=O)N[C@@H](C)C(=O)N[C@@H](CCSC)C(=O)N[C@@H](CC(=O)O)C(=O)N[C@@H](CCCCN)C(=O)N[C@H](C(=O)N[C@@H](CCCCNC(=O)CCCCCCCCCCCCCCC(=O)O)C(=O)N[C@@H](CCC(N)=O)C(=O)N[C@@H](CCC(N)=O)C(=O)N[C@@H](CC(=O)O)C(=O)N[C@@H](Cc1ccccc1)C(=O)N[C@H](C(=O)N[C@@H](CC(N)=O)C(=O)N[C@@H](Cc1c[nH]c2ccccc12)C(=O)N[C@@H](CC(C)C)C(=O)N[C@@H](CC(C)C)C(=O)N[C@@H](C)C(=O)N[C@@H](CCC(N)=O)C(=O)N[C@@H](CCCCN)C(=O)N1CCC[C@H]1C(=O)N[C@@H](CO)C(=O)N[C@@H](CO)C(=O)NCC(=O)N[C@@H](C)C(=O)N1CCC[C@H]1C(=O)N1CCC[C@H]1C(=O)N1CCC[C@H]1C(=O)N[C@@H](CO)C(=O)O)C(C)C)[C@@H](C)CC
Regarding B4, the “cAMP agonism % Emax” value was 3%, the “cAMP antagonism” value was found to be 4.3 nM, the “cAMP antagonism % inhib” value turned out to be 90% and the “cAMP antagonism pIC50” value was determined as 8.4.

(Values after patent US20220298218A1 (ANTAG THERAPEUTICS, published 2022).)
